Measurements published in patent US10245299B2, “Autoassembling peptides for the treatment of pulmonary bulla” (3-D MATRIX, LTD., priority 2014, dated 2019).
Where no end group is shown, it is not given here.

How the values were obtained:
Format in all cases: physicochemical
[1] = Appearance of 1.5% peptide solutions with various salts at room temperature; conditions: for Appearance: KLD12 solution, room temperature
Method: The effect of salt ionic strength level on the properties of peptide solutions was evaluated to identify optimized salt ionic strength levels for the peptides as described herein. Increasing the salt ionic strength level of PuraMatrix® and other peptides may generally improve its function and mechanical strength for various clinical applications. To adjust the salt ionic strength of the peptide solutions by way of example, various salt buffer solutions including NaCl, KCl, MgCl2, CaCl2 and DPBS (10×) were added to 2 mL of 1.5% peptide solutions.

[2] = Rheological properties of pH adjusted peptide solutions and hydrogels; conditions: KLD12 1%, IEIK13 1%, PuraMatrix® 1% and 2.5%
Method: Based on the visual observation of the effect of pH level on the properties of the peptide solutions, the effect on the rheological properties of the peptide solutions after adjusting their pH level to 3.4 (PuraMatrix® and KLD12) or 3.7 (IEIK13) was evaluated. If the pH levels of peptide solutions are higher than 3.5 (PuraMatrix® and KLD12) or 3.7 (IEIK13), the peptide solution began phase separation becoming cloudy. The rheological properties of PuraMatrix®, KLD12 and IEIK13 solutions were higher at pH 3.4. The results are shown in FIG. 2 for KLD12 1%, FIG. 3 for IEIK13 1%, and FIGS. 4-5 for PuraMatrix® 1% and 2.5%, respectively. Stress sweep tests were performed at 10 rad/s. Frequency sweep tests were performed at 1 Pa.
Based on the results of the effect on the rheological properties of the peptide solutions after adjusting their pH level to 3.4 (PuraMatrix® and KLD12) or 3.7 (IEIK13), the effect on the rheological properties of the peptide solutions at various pH levels was evaluated. […] The rheological properties of peptides were evaluated at various concentrations using a rheometer (DHR-1, TA Instruments) with 20 mm plates. The results are shown in FIG. 6A for PuraMatrix® 2.5% solution and FIG. 6B for IEIK13 1.5% solution, respectively. Frequency sweep tests were performed from 1 rad/sec to 10 rad/sec at 1 Pa and the storage modulus at 1 rad/sec was selected for data.
Based on the results of the effect on the rheological properties of the peptide solutions after adjusting their pH level, the effect on the rheological properties of the peptide hydrogels at various pH after DMEM treatment was evaluated and compared to the effect on the rheological properties of the peptide solutions at various pH before DMEM treatment. […] The results are shown in FIGS. 7A-7B for PuraMatrix® and FIGS. 8A-8B for IEIK (SEQ ID NO: 5), respectively. Frequency sweep tests were performed from 1 rad/sec to 10 rad/sec at 1 Pa and the storage modulus at 1 rad/sec was selected for data.

[3] = Gelation of peptide solutions after saline buffer treatment, time sweep; conditions: saline buffer (0.15 M of NaCl); IEIK13 1.5%, KLD12 1.5%, PuraMatrix® 2.5% solution
Method: The effect of salt ionic strength level surrounding peptide solution on the properties of peptide solutions was evaluated to identify the possibility of peptide gelation when the peptide solution is placed into the environment where salt ionic strength level is high. […] Without pH effect, the effect of saline treatment on gelation of peptide solutions were evaluated. […] This is because IEIK13 is much more sensitive to salt ionic strength levels. Fast gelation of IEIK13 at the salt ionic strength level similar to body fluid isotonic salt level may generally improve its function and gelation speed for various clinical applications. The results are shown in FIG. 19 for IEIK13, KLD12 and PuraMatrix® solutions. Time sweep tests were performed at 1 rad/sec and at 1 Pa with 20 mm plates and 500 μm gap distance. […]

[4] = pH and appearance of 2.5% peptide solutions after adding 0.1 N NaOH
Method: To adjust the pH level of the peptide solutions by way of example, 0.1 N NaOH was added to 2 mL of 2.5% peptide solutions and their pH and appearance were measured.

With KLDLKLDLKLDL [KLD12] the Appearance ([1]; conc. 1.3%, KCl 0.4 M, ionic strength 0.4 M) was “Cloudy, phase-separated”, the Appearance ([1]; conc. 1.3%, NaCl 0.4 M, ionic strength 0.4 M) was “Cloudy, phase-separated” and the Appearance ([1]; conc. 1.32%, KCl 0.35 M, ionic strength 0.35 M) was “Slightly cloudy, brittle gel”. For the same sequence, the Appearance ([1]; conc. 1.32%, NaCl 0.35 M, ionic strength 0.35 M) was “Slightly cloudy, brittle gel”, the Appearance ([1]; conc. 1.35%, KCl 0.3 M, ionic strength 0.3 M) was “Slightly cloudy, thick, stiffer gel” and the Appearance ([1]; conc. 1.35%, NaCl 0.3 M, ionic strength 0.3 M) was “Slightly cloudy, thick, stiffer gel”. For the same sequence, the Appearance ([1]; conc. 1.38%, KCl 0.25 M, ionic strength 0.25 M) was “Clear, thick, stiffer gel”, the Appearance ([1]; conc. 1.38%, NaCl 0.25 M, ionic strength 0.25 M) was “Clear, thick, stiffer gel” and the Appearance ([1]; conc. 1.4%, KCl 0.2 M, ionic strength 0.2 M) was “Clear, thick, stiffer gel”. The Appearance ([1]; conc. 1.4%, NaCl 0.2 M, ionic strength 0.2 M) was “Clear, thick, stiffer gel”, the Appearance ([1]; conc. 1.42%, CaCl2 0.167 M, ionic strength 0.5 M) was “Cloudy, phase-separated” and the Appearance ([1]; conc. 1.42%, MgCl2 0.167 M, ionic strength 0.5 M) was “Cloudy, phase-separated”. The Appearance ([1]; conc. 1.43%, CaCl2 0.133 M, ionic strength 0.4 M) was “Slightly cloudy, thick, stiffer gel”, the Appearance ([1]; conc. 1.43%, CaCl2 0.15 M, ionic strength 0.45 M) was “Slightly cloudy, brittle gel” and the Appearance ([1]; conc. 1.43%, KCl 0.15 M, ionic strength 0.15 M) was “Clear, thick, stiffer gel”. The Appearance ([1]; conc. 1.43%, MgCl2 0.133 M, ionic strength 0.4 M) was “Slightly cloudy, thick, stiffer gel”, the Appearance ([1]; conc. 1.43%, MgCl2 0.15 M, ionic strength 0.45 M) was “Slightly cloudy, brittle gel” and the Appearance ([1]; conc. 1.43%, NaCl 0.15 M, ionic strength 0.15 M) was “Clear, thick, stiffer gel”. For the same sequence, the Appearance ([1]; conc. 1.44%, CaCl2 0.117 M, ionic strength 0.35 M) was “Clear, thick, stiffer gel”, the Appearance ([1]; conc. 1.44%, MgCl2 0.117 M, ionic strength 0.35 M) was “Clear, thick, stiffer gel” and the Appearance ([1]; conc. 1.45%, CaCl2 0.1 M, ionic strength 0.3 M) was “Clear, thick, stiffer gel”. For the same sequence, the Appearance ([1]; conc. 1.45%, KCl 0.1 M, ionic strength 0.1 M) was “Clear, thick, stiffer gel”, the Appearance ([1]; conc. 1.45%, MgCl2 0.1 M, ionic strength 0.3 M) was “Clear, thick, stiffer gel” and the Appearance ([1]; conc. 1.45%, NaCl 0.1 M, ionic strength 0.1 M) was “Clear, thick, stiffer gel”. For the same sequence, the Appearance ([1]; conc. 1.46%, CaCl2 0.083 M, ionic strength 0.25 M) was “Clear, thick, stiffer gel”, the Appearance ([1]; conc. 1.46%, MgCl2 0.083 M, ionic strength 0.25 M) was “Clear, thick, stiffer gel” and the Appearance ([1]; conc. 1.47%, CaCl2 0.067 M, ionic strength 0.2 M) was “Clear, thick, stiffer gel”. For the same sequence, the Appearance ([1]; conc. 1.47%, MgCl2 0.067 M, ionic strength 0.2 M) was “Clear, thick, stiffer gel”, the Appearance ([1]; conc. 1.48%, CaCl2 0.05 M, ionic strength 0.15 M) was “Clear, thick, stiffer gel” and the Appearance ([1]; conc. 1.48%, KCl 0.05 M, ionic strength 0.5 M) was “Clear, thick, stiffer gel”. For the same sequence, the Appearance ([1]; conc. 1.48%, MgCl2 0.05 M, ionic strength 0.15 M) was “Clear, thick, stiffer gel”, the Appearance ([1]; conc. 1.48%, NaCl 0.05 M, ionic strength 0.5 M) was “Clear, thick, stiffer gel” and the Appearance ([1]; conc. 1.5%, CaCl2 0 M, ionic strength 0 M) was “Clear, thick gel”. The Appearance ([1]; conc. 1.5%, KCl 0 M, ionic strength 0 M) was “Clear, thick gel”, the Appearance ([1]; conc. 1.5%, MgCl2 0 M, ionic strength 0 M) was “Clear, thick gel” and the Appearance ([1]; conc. 1.5%, NaCl 0 M, ionic strength 0 M) was “Clear, thick gel”. The “salt ionic strength increase that did not change the clear color of the solution (apparent stiffness increased)” value ([1]; depending on different salts, 1.5% peptide solutions) was 0.25˜0.35 M, the “rheological properties of solutions at pH 3.4” value [2] was “higher” and the “gelation after saline buffer treatment” value [3] was “no or negligible gelation”. The Appearance ([4]; 0.1N NaOH 0 μL/mL, conc. 2.5%, pH 2.1) was “Clear, thick gel”, the Appearance ([4]; 0.1N NaOH 50 μL/mL, conc. 2.38%, pH 2.4) was “Clear, thick gel” and the Appearance ([4]; 0.1N NaOH 100 μL/mL, conc. 2.27%, pH 2.6) was “Clear, thick gel”. For the same sequence, the Appearance ([4]; 0.1N NaOH 250 μL/mL, conc. 2.0%, pH 4.0) was “Slightly cloudy,”, the Appearance ([4]; 0.1N NaOH 300 μL/mL, conc. 1.92%, pH 4.7) was “Cloudy, brittle gel” and the Appearance ([4]; 0.1N NaOH 350 μL/mL, conc. 1.85%, pH 5.2) was “Cloudy, phase-”. For the same sequence, the “Peptide solution pH” value ([4]; 0.1N NaOH added in 2.5% solution 0 μL/mL, conc. 2.5%) was 2.1, the “Peptide solution pH” value ([4]; 0.1N NaOH added in 2.5% solution 50 μL/mL, conc. 2.38%) was 2.4 and the “Peptide solution pH” value ([4]; 0.1N NaOH added in 2.5% solution 100 μL/mL, conc. 2.27%) was 2.6. The “Peptide solution pH” value ([4]; 0.1N NaOH added in 2.5% solution 150 μL/mL, conc. 2.17%) was 2.9, the “Peptide solution pH” value ([4]; 0.1N NaOH added in 2.5% solution 200 μL/mL, conc. 2.08%) was 3.3 and the “Peptide solution pH” value ([4]; 0.1N NaOH added in 2.5% solution 225 μL/mL, conc. 2.04%) was 3.6. For the same sequence, the “Peptide solution pH” value ([4]; 0.1N NaOH added in 2.5% solution 250 μL/mL, conc. 2.0%) was 4.0, the “Peptide solution pH” value ([4]; 0.1N NaOH added in 2.5% solution 300 μL/mL, conc. 1.92%) was 4.7 and the “Peptide solution pH” value ([4]; 0.1N NaOH added in 2.5% solution 350 μL/mL, conc. 1.85%) was 5.2. The Appearance ([4]; pH 7.0) was “Cloudy, phase-”.
